Values quoted from earlier work, collected in PMC12537681.

Target: Spike glycoprotein trimer (Severe acute respiratory syndrome coronavirus 2) (UniProt P0DTC2)

TLR4 (from UniProt O00206)
Kd: 300 nM
